According to EP2080771A2 (Maxygen Aps, dated 2009):
Numbering of substitutions follows the chain as printed. In names and notes the source's numbering stands. Read-outs that look alike come from different tables or passages of the source.

What was measured:
Assay in all cases: cell-based or functional assay
[1] = molecular target: T1, Interferon type I receptors on HeLa cells (UniProt P17181 28-557; P48551 27-515, limits assumed)
T1 sequence (looked up) 1: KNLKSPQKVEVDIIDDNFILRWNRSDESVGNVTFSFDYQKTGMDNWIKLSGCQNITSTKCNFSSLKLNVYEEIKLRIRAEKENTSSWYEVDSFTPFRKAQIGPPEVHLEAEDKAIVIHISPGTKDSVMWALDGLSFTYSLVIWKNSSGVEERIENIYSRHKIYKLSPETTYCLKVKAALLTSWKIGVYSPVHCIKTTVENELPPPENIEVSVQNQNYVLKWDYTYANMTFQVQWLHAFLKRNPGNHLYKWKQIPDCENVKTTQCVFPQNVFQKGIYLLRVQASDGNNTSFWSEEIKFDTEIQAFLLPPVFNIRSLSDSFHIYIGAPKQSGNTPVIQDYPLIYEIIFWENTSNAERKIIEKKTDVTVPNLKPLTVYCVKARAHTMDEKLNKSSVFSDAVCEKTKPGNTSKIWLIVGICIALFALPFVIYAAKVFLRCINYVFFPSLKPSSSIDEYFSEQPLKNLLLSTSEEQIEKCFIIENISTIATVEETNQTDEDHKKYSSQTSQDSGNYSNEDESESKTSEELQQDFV
T1 sequence (looked up) 2: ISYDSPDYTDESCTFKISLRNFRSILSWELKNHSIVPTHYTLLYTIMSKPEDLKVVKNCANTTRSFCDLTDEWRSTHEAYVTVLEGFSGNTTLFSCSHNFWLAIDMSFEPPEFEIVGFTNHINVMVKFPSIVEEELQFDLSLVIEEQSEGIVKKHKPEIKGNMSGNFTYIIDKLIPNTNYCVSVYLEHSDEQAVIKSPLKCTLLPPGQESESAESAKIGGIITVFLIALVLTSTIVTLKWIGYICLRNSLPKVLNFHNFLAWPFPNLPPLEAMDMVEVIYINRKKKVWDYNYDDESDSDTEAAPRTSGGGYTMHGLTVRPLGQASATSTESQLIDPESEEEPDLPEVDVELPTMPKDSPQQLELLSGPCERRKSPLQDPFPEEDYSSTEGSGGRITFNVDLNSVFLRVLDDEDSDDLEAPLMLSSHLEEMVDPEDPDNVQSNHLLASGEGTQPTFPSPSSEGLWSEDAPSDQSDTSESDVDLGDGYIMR

[2] = molecular target: T1, Interferon type I receptors on HeLa …; remark: listed apart in the source
[3] = molecular target: T1, Interferon type I receptors on HeLa …; remark: listed apart in the source

B1: [Q48V, Q49N, Q51T]hINF-β (ligand)
chain: MSYNLLGFLQRSSNFQCQKLLWQLNGRLEYCLKDRMNFDIPEEIKQLVNFTKEDAALTIYEMLQNIFAIFRQDSSSTGWNETIVENLLANVYHQINHLKTVLEEKLEKEDFTRGKLMSSLHLKRYYGRILHYLKAKEYSHCAWTIVRVEILRNFYFINRLTGYLRN
modifications: introduced N-linked glycosylation site at position 49, besides the natural site at N80 (expressed in CHO K1 cells)
INF-β activity, culture medium of transfected CHO K1 cells [1]: 65900 IU/ml

B2: [D110V, F111N, R113T]hINF-β (ligand)
chain: B1 chain with V48Q, N49Q, T51Q, D110V, F111N, R113T
modifications: introduced N-linked glycosylation site at position 111, besides the natural site at N80 (expressed in CHO K1 cells)
INF-β activity, culture medium of transfected CHO K1 cells [2]: 15100 IU/ml

B3: [Q48W, Q49N, Q51T]hINF-β (ligand)
chain: B1 chain with V48W
modifications: introduced N-linked glycosylation site at position 49, besides the natural site at N80 (expressed in CHO K1 cells)
INF-β activity, culture medium of transfected CHO K1 cells [1]: 45100 IU/ml

B4: [Q48F, Q49N, Q51T]hINF-β (ligand)
chain: B1 chain with V48F
modifications: introduced N-linked glycosylation site at position 49, besides the natural site at N80 (expressed in CHO K1 cells)
INF-β activity, culture medium of transfected CHO K1 cells [1]: 53100 IU/ml

B5: [D110F, F111N, R113T]hINF-β (ligand)
chain: B1 chain with V48Q, N49Q, T51Q, D110F, F111N, R113T
modifications: introduced N-linked glycosylation site at position 111, besides the natural site at N80 (expressed in CHO K1 cells)
INF-β activity, culture medium of transfected CHO K1 cells [2]: 50900 IU/ml

B6: [Q49N+Q51T]hINF-β variant (ligand)
chain: B1 chain with V48Q
modifications: introduced N-linked glycosylation site at position 49 (used only about 60%), besides the natural site at N80 (expressed in CHO K1 cells)
INF-β activity, culture medium of transfected CHO K1 cells [1]: 135000 IU/ml

B7: [F111N+R113T]hINF-β variant (ligand)
chain: B1 chain with V48Q, N49Q, T51Q, F111N, R113T
modifications: introduced N-linked glycosylation site at position 111 (used only about 50%), besides the natural site at N80 (expressed in CHO K1 cells)
INF-β activity, culture medium of transfected CHO K1 cells [2]: 58600 IU/ml | specific activity relative to wt hINF-β [3]: ~2 fold of wt hINF-β
